Experiments:
Details in all cases: tags: Sigma; label: 32P
[1] = molecular target: T1, Glucocorticoid receptor (GR) (UniProt P04150 P04150:1-777); test: EMSA; 20 min 25 C, 6% gel 0.5xTBE; competed by 10-fold excess unlabeled GRE and 2- to 50-fold unlabeled D-sequence, not by NS (FIG. 3B)
From the text: (§1) In contrast, both D-sequences in the scAAV2 genomes are present in double-stranded forms. Since GR activation had no effect on the transduction efficiency for ssAAV2 vectors, it was hypothesized that the D-sequence might contain a putative GRE site. Indeed, there exists a sequence, GGTTCCT, at the end of the D-sequence, which shares partial homology to the consensus GRE site, 5'-GGTA-CANNNTGT(T/C)CT-3' (SEQ ID NO: 1) (34). The TGTTCT half-site is an essential core element which has been reported to be sufficient to relay glucocorticoid signaling (34). To experimentally test the possibility whether purified GR protein could bind to the D-sequence, electrophoretic mobility-shift assays (EMSAs) were carried out using double-stranded D-sequence oligonucleotides (D: 5'-[…]-3') (SEQ ID NO: 6). One of the conventional double-stranded GRE sequences (GRE: 5'-[…]-3') (SEQ ID NO: 13), and a non-specific (NS) sequence (NS: 5'-[…]-3') (SEQ ID NO: 10) were used as appropriate positive and negative controls, respectively. Each of the ^32P-labeled oligonucleotide probes was individually incubated with purified GR proteins for 20 minutes at 25° C. and then subjected to EMSAs. […]

[2] = molecular target: T1, Glucocorticoid receptor (GR); test: EMSA; 20 min 25 C; GR binding to GRE only slightly more efficient than to D by densitometry; unlabeled D competes GRE probe at 2- to 50-fold excess
[3] = molecular target: T1, Glucocorticoid receptor (GR); test: EMSA; 20 min 25 C; unlabeled NS does not compete GRE probe (FIG. 3B lane 6)
From the text: as §1

T1 sequence (P04150 whole entry, one chain of several): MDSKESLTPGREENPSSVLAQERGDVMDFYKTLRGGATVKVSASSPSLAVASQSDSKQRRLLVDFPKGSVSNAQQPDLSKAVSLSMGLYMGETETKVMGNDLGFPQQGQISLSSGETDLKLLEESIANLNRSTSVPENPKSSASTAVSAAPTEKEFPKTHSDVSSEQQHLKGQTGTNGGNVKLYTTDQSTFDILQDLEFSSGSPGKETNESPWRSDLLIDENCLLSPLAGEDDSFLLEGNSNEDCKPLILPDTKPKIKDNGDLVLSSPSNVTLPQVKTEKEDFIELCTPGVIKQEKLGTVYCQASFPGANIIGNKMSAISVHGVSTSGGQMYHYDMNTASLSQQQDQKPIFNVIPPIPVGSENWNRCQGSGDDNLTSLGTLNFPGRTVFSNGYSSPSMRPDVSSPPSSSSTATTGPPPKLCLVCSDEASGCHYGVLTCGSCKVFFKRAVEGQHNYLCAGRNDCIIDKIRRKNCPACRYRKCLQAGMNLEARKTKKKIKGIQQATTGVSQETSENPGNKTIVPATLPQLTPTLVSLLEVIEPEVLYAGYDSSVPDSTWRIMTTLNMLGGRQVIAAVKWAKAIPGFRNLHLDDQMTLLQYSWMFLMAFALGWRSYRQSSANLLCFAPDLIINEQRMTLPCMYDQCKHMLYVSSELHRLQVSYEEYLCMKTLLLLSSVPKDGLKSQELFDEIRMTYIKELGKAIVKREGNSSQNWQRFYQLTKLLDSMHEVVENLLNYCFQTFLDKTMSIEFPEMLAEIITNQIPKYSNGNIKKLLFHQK

B1: GRE (dsDNA)
DNA 1: CTAGGCTGTACAGGATGTTCTGCCTAG
DNA 2: CTAGGCAGAACATCCTGTACAGCCTAG
[1]
  binding result: binds

B2: AAV2 D-sequence (D) (dsDNA)
DNA 1: CTCCATCACTAGGGGTTCCT
DNA 2: AGGAACCCCTAGTGATGGAG
[2]
  binding result: binds

B3: Non-specific (NS) (dsDNA)
DNA 1: TATTAGATCTGATGGCCGCT
DNA 2: AGCGGCCATCAGATCTAATA
[3]
  binding result: no binding
